Source: PMC10397247

T1: P6-AA-12HAA-R
T1 chain: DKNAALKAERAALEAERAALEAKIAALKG

T2: P6-AA-12HAA-L
T2 chain: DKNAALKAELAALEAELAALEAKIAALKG

T3: P6-AA-12HAA-E
T3 chain: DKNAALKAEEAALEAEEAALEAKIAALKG

T4: P6-AA-1HAA-L
T4 chain: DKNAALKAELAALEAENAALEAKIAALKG

T5: P6-AA-1HAA-D
T5 chain: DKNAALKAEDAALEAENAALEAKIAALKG

T6: P6-AA-1HAA-H
T6 chain: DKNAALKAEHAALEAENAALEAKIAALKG

T7: P6-AA-12HAA-V
T7 chain: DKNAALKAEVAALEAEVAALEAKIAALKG

T8: P6-AA-1HAA-E
T8 chain: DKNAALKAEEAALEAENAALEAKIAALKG

T9: P6-AA-1HAA-V
T9 chain: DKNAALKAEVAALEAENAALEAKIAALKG

T10: P6-AA-1HAA-Y
T10 chain: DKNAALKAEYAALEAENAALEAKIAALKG

T11: P6-AA-12HAA-K
T11 chain: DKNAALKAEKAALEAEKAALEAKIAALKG

T12: P6-AA-1HAA-N
T12 chain: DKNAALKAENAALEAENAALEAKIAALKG

T13: P6-AA-1HAA-T
T13 chain: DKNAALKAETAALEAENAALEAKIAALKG

T14: P6-AA-1HAA-S
T14 chain: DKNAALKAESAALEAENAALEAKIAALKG

T15: P6-AA-12HAA-S
T15 chain: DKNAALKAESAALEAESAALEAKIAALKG

T16: P6-AA-12HAA-Y
T16 chain: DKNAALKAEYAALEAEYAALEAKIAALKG

T17: P6-AA-1HAA-R
T17 chain: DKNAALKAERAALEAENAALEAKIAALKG

T18: P6-AA-12HAA-D
T18 chain: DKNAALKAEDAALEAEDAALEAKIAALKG

T19: P6-AA-12HAA-H
T19 chain: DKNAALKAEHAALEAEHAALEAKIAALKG

T20: P6-AA-1HAA-K
T20 chain: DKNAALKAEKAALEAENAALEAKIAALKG

T21: P6-AA-12HAA-T
T21 chain: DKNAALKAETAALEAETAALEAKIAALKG

B1: P5-AA-12HAA-H (peptide)
chain: DENAALEAKHAALKAKHAALKAEIAALEG
B2: P5-AA-12HAA-S (peptide)
chain: DENAALEAKSAALKAKSAALKAEIAALEG
B3: P5-AA-12HAA-T (peptide)
chain: DENAALEAKTAALKAKTAALKAEIAALEG
B4: P5-AA-12HAA-Y (peptide)
chain: DENAALEAKYAALKAKYAALKAEIAALEG
B5: P5-AA-1HAA-Y (peptide)
chain: DENAALEAKYAALKAKNAALKAEIAALEG
B6: P5-AA-1HAA-K (peptide)
chain: DENAALEAKKAALKAKNAALKAEIAALEG
B7: P5-AA-1HAA-A (peptide)
chain: DENAALEAKAAALKAKNAALKAEIAALEG
B8: P5-AA-1HAA-D (peptide)
chain: DENAALEAKDAALKAKNAALKAEIAALEG

Molecular target: T1, P6-AA-12HAA-R
Assay: two-hybrid library CCmax;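 further: natural log of median RNA to DNA barcode read ratio; higher means stronger binding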
Conditions: mean of both orientations

interaction score | Binder
-1.68 | B1
-1.81 | B2
-1.74 | B3
-1.41 | B4

Molecular target: T2, P6-AA-12HAA-L
Assay: two-hybrid library CCmax;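 further: natural log of median RNA to DNA barcode read ratio; higher means stronger binding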
Conditions: mean of both orientations

interaction score | Binder
1.16 | B1
0.323 | B2
1.25 | B3
2.06 | B4

Molecular target: T3, P6-AA-12HAA-E
Assay: two-hybrid library CCmax;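 further: natural log of median RNA to DNA barcode read ratio; higher means stronger binding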
Conditions: mean of both orientations

interaction score | Binder
-1.49 | B1
-1.88 | B2
-1.36 | B3
-1.65 | B4

Molecular target: T4, P6-AA-1HAA-L
Assay: two-hybrid library CCmax;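 further: natural log of median RNA to DNA barcode read ratio; higher means stronger binding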
Conditions: mean of both orientations

interaction score | Binder
1.72 | B5
1.84 | B6
1.94 | B7
-0.571 | B8

Molecular target: T5, P6-AA-1HAA-D
Assay: two-hybrid library CCmax
Conditions: mean of both orientations

interaction score | Binder
-0.899 | B5
-0.814 | B6
-1.94 | B7
-1.42 | B8

Molecular target: T6, P6-AA-1HAA-H
Assay: two-hybrid library CCmax
Conditions: mean of both orientations

interaction score | Binder
-0.1 | B5
-0.889 | B6
-0.274 | B7
-0.764 | B8

Molecular target: T7, P6-AA-12HAA-V
Assay: two-hybrid library CCmax
Conditions: mean of both orientations

interaction score | Binder
1.55 | B1
1.55 | B2
1.5 | B3
2.38 | B4

Molecular target: T8, P6-AA-1HAA-E
Assay: two-hybrid library CCmax
Conditions: mean of both orientations

interaction score | Binder
-0.129 | B5
-0.501 | B6
-0.184 | B7
-1.72 | B8

Molecular target: T9, P6-AA-1HAA-V
Assay: two-hybrid library CCmax
Conditions: not given

interaction score | Binder
2.66 | B7

Same assay, conditions: mean of both orientations

interaction score | Binder
1.79 | B5
2.05 | B6
0.68 | B8

Molecular target: T10, P6-AA-1HAA-Y
Assay: two-hybrid library CCmax
Conditions: not given

interaction score | Binder
-0.724 | B8

Same assay, conditions: mean of both orientations

interaction score | Binder
1.34 | B5
0.0221 | B6
0.845 | B7

Molecular target: T11, P6-AA-12HAA-K
Assay: two-hybrid library CCmax
Conditions: mean of both orientations

interaction score | Binder
-1.6 | B1
-1.73 | B2
-1.33 | B3
-1.55 | B4

Molecular target: T12, P6-AA-1HAA-N
Assay: two-hybrid library CCmax
Conditions: mean of both orientations

interaction score | Binder
1.76 | B5
1.41 | B6
0.981 | B7
0.14 | B1
-1.02 | B2
-1.49 | B3
-1.12 | B8
-0.0879 | B4

Molecular target: T13, P6-AA-1HAA-T
Assay: two-hybrid library CCmax
Conditions: mean of both orientations

interaction score | Binder
1.28 | B5
1.53 | B6
0.325 | B7
-1.02 | B8

Molecular target: T14, P6-AA-1HAA-S
Assay: two-hybrid library CCmax
Conditions: mean of both orientations

interaction score | Binder
1.55 | B5
0.0853 | B6
-0.02 | B7
-1.34 | B8

Molecular target: T15, P6-AA-12HAA-S
Assay: two-hybrid library CCmax
Conditions: not given

interaction score | Binder
-1.37 | B1

Same assay, conditions: mean of both orientations

interaction score | Binder
-1.65 | B2
-1.61 | B3
-1.4 | B4

Molecular target: T16, P6-AA-12HAA-Y
Assay: two-hybrid library CCmax
Conditions: mean of both orientations

interaction score | Binder
-0.856 | B1
-0.94 | B2
0.46 | B3
1.48 | B4

Molecular target: T17, P6-AA-1HAA-R
Assay: two-hybrid library CCmax
Conditions: mean of both orientations

interaction score | Binder
-0.286 | B5
-1.3 | B6
-0.629 | B7
-1.35 | B8

Molecular target: T18, P6-AA-12HAA-D
Assay: two-hybrid library CCmax
Conditions: mean of both orientations

interaction score | Binder
-1.53 | B1
-1.65 | B2
-2.09 | B3
-1.3 | B4

Molecular target: T19, P6-AA-12HAA-H
Assay: two-hybrid library CCmax
Conditions: mean of both orientations

interaction score | Binder
-1.49 | B1
-1.82 | B2
-1.12 | B3
-1.67 | B4

Molecular target: T20, P6-AA-1HAA-K
Assay: two-hybrid library CCmax
Conditions: mean of both orientations

interaction score | Binder
0.174 | B5
-0.653 | B6
-0.453 | B7
-1.15 | B8

Molecular target: T21, P6-AA-12HAA-T
Assay: two-hybrid library CCmax
Conditions: not given

interaction score | Binder
-0.448 | B4

Same assay, conditions: mean of both orientations

interaction score | Binder
-0.831 | B1
-1.48 | B2
-1.23 | B3
